According to US20220259593A1, “CONTROL OF MAMMALIAN GENE DOSAGE USING CRISPR” (The Regents of the University of California, priority 2019, published 2022):

System: K562 CRISPRi cells
Experiment: Constant region variant library pooled growth screen, K562
Format: cell-based, human
Settings: sgRNA constant region variants; activity relative to the original, un-modified constant region cr995
How it was run: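 Cells were selected with puromycin for 2 days and then kept in RPMI-1640 spinner cultures, with duplicates handled separately. Targeting sequences comprised 3 sgRNAs per essential gene for 10 genes plus six non-targeting controls. Activities were normalized against pairing with the unmodified scaffold.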

| Molecule | Mean relative activity |
| --- | --- |
| cr333 (nucleic acid, listed as DNA, chemistry not fully specified) guide: GTTTAAGAGCTAAGCTGGAAACAGCATAGCAAGTTTAAATAAGGCTAGTCCGTTATCAAGGTGAAAACCTGGCACCGAGTCGGTGCT | 1.072 |
| cr156 (nucleic acid, listed as DNA, chemistry not fully specified) guide: GTTTAAGAGCTAAGCTGGAAACAGCATAGCAAGTTTAAATAAGGCTAGTCCGTTATCAACTAGAAATAGTGGCACCGAGTCGGTGCT | 1.072 |
| cr363 (nucleic acid, listed as DNA, chemistry not fully specified) guide: GTTTAAGAGCTAAGCTGGAAACAGCATAGCAAGTTTAAATAAGGCTAGTCCGTTATCAATTCGAAAGAATGGCACCGAGTCGGTGCT | 1.07 |

Same assay, conditions: sgRNA constant region variants; relative to the original, un-modified constant region cr995 (= 1)

| Molecule | Mean relative activity |
| --- | --- |
| cr968 (nucleic acid, listed as DNA, chemistry not fully specified) guide: GTTTAAGAGCTAAGCTGGAAACAGCATAGCAAGTTTAAATAAGGCTAGTCCGTTATCAACTTGAAAAAGTGGAACCGAGTCGGTTCT | 1.004 |
| cr392 (nucleic acid, listed as DNA, chemistry not fully specified) guide: GTTTAAGAGCTAAGCTGGAAACAGCATAGCATGTTTAAATAAGGCTAGTCCGTTATCAACTTGATAAAGTGGCACCGAGTCGGTGCT | 0.9999 |
| cr666 (nucleic acid, listed as DNA, chemistry not fully specified) guide: GTTTAAGAGCTAAGCTGGAAACAGCATAGCAAGTTTAAATAAGGTTAATCCGTTATCAACTTGAAAAAGTGGAGCCGAGTCGGCTCT | 0.996 |
| cr672 (nucleic acid, listed as DNA, chemistry not fully specified) guide: GTTTAAGAGCTAAGCTGGAAACAGCATAGCAAGTTTAAATAAGGCTAGTCCGTTATCAACTTGAAAAAGTGGCATCGAGTCGGTGCT | 1.005 |
| cr489 (nucleic acid, listed as DNA, chemistry not fully specified) guide: GTTTAAGAGCTAAGCTGGAAACAGCATAGCAAGTTTAAATAAGGCTAGTCCGTTATCAACTTGAGAAAGTGGGACCGAGTCGGTCCT | 0.9991 |
| cr947 (nucleic acid, listed as DNA, chemistry not fully specified) guide: GTTTAAGAGCTAAGCTGGGAACAGCATAGCAAGTTTAAATAAGGCTAGTCCGTTATCAACTTGAAAAAGTGGCACCGAGTCGGTGCT | 0.9997 |
| cr232 (nucleic acid, listed as DNA, chemistry not fully specified) guide: GTTTAAGAGCTAAGCTGGAAACAGCACAGCAAGTTTAAATAAGGCTAGTCCGTTATCAACTTGAAAAAGTGGCACCGAGTCGGTGCT | 1.006 |
| cr269 (nucleic acid, listed as DNA, chemistry not fully specified) guide: GTTTAAGAGCTAAGCTGGAAACAGCATAGCAAGTTTAAATAAGGCTAGTCCGTTATCAACTTGAAAAAGTGCAACCGAGTCGGTTGT | 0.9979 |
| cr698 (nucleic acid, listed as DNA, chemistry not fully specified) guide: GTTTAAGAGCTAAGCTGGAAACAGCATAACAAGTTTAAATAAGGCTAGTCCGTAATCAACTTGTAAAAGTGGCACCGAGTCGGTGCT | 0.9956 |
| cr945 (nucleic acid, listed as DNA, chemistry not fully specified) guide: GTTTAAGAGCTAAGCTGGAAACAGCATAGCAAGTTTAAATAAGGCTAGTCCGTTATCAACTTGAAGAAGTGGCACCGATTCGGTGCT | 1.002 |
| cr393 (nucleic acid, listed as DNA, chemistry not fully specified) guide: GTTTAAGAGCTAAGCTGGAAACAGCATAGCAAGTTTAAATAAGGCTAGTCCGTTATCAACTTGACAAAGTGGCACCGAATCGGTGCT | 1.004 |
| cr155 (nucleic acid, listed as DNA, chemistry not fully specified) guide: GTTTAAGAGCTAAGCTGGAAACAGCATAGCAAGTTTAAATAAGGCTAGTCCGTTATCAATTGGAAACAATGGCATCGAGTCGATGCT | 1.003 |
| cr656 (nucleic acid, listed as DNA, chemistry not fully specified) guide: GTTTAAGAGCTAAGCTGGAAACAGCATAGCAAGTTTAAATAAGGCTAGTCCGTTATCAACTTGAAAAAGTGGCCCCGAGTCGGGGCT | 1.004 |
| cr713 (nucleic acid, listed as DNA, chemistry not fully specified) guide: GTTTAAGAGCTAAGCTGGAAACAGCATAGCAAGTTTAAATAAGGCTAGTCCGTTATCAACTAGAGATAGTGGCACCGAGTCGGTGCT | 0.9979 |
| cr195 (nucleic acid, listed as DNA, chemistry not fully specified) guide: GTTTAAGAGCTAAGCTGGAAACAGCATAGCAAGTTTAAATAAGGCTAGTCCGTTATCAACTTGCAAAAGTGGCACCGATTCGGTGCT | 0.9986 |
| cr789 (nucleic acid, listed as DNA, chemistry not fully specified) guide: GTTTAAGAGCTAAGCTGGAAACAGCATAGCAAGTTTAAATAAGGCTAGTCCGTTATCAACTTGAAAAAGTGCCACCGAGTCGGTGGT | 0.9955 |
| cr774 (nucleic acid, listed as DNA, chemistry not fully specified) guide: GTTTAAGAGCTAAGCTGGACACAGCATAGCAAGTTTAAATAAGGCTAGTCCGTTATCAACTTGAAAAAGTGGCACCGAGTCGGTGCT | 0.9968 |
| cr995: original, un-modified sgRNA constant region sequence (nucleic acid, listed as DNA, chemistry not fully specified) guide: GTTTAAGAGCTAAGCTGGAAACAGCATAGCAAGTTTAAATAAGGCTAGTCCGTTATCAACTTGAAAAAGTGGCACCGAGTCGGTGCT | 1 |
| cr851 (nucleic acid, listed as DNA, chemistry not fully specified) guide: GTTTAAGAGCTAAGCTGGAAACAGCATAGCAAGTTTAAATAAGGCTAGTCCGTTATCAGCTTGAAAAAGCGGCACCAAGTTGGTGCT | 1.002 |
| cr128 (nucleic acid, listed as DNA, chemistry not fully specified) guide: GTTTAAGAGCTAAGCTGGAAACAGCATAGCAAGTTTAAATAAGGCTAGTCCGTTATCAGCTTGAAAAAGCGGCACAGAGTCTGTGCT | 1.002 |
| cr172 (nucleic acid, listed as DNA, chemistry not fully specified) guide: GTTTAAGAGCTAAGCTGGAAACAGCATAGCAAGTTTAAATAAGGCTTGTCCGTTATCAACTTGTAAAAGTGGCACCGAGTCGGTGCT | 0.9996 |
| cr722 (nucleic acid, listed as DNA, chemistry not fully specified) guide: GTTTAAGAGCTAAGCTGGAAACAGCATAGCAAGTTTAAATAAGGCTAGTCCGTTATCAACTTGAGAAAGTGGCCCCGAGTCGGGGCT | 1.001 |
| cr152 (nucleic acid, listed as DNA, chemistry not fully specified) guide: GTTTAAGAGCTAAGCTGGAAACAGCATAGCAAGTTTAAATAAGGCTAGTCCGTTATCAACTTGAAAAAGTGAAACCGAGTCGGTTTT | 0.9971 |
| cr901 (nucleic acid, listed as DNA, chemistry not fully specified) guide: GTTTAAGAGCTAAGCTGGAAACAGCATAGCAAGTTTAAATAAGGCTAGTCCGTTATCAACTTGAAGAAGTGGCACCGAGTCGGTGCT | 1.003 |
| cr956 (nucleic acid, listed as DNA, chemistry not fully specified) guide: GTTTAAGAGCTAAGCTGGAAACAGCATAGCAAGTTTAAATAAGGCAAGTCCGTTATCAACTTGAAAAAGTGGCACCGAGTCGGTGCT | 0.9983 |
| cr139 (nucleic acid, listed as DNA, chemistry not fully specified) guide: GTTTAAGAGCTAAGCTGGAAACAGCATAGCAAGTTTAAATAAGGCTAGTCCGTTATCAACTTGAAAAAGTGGCAACGAGTCGTTGCT | 1.006 |
| cr923 (nucleic acid, listed as DNA, chemistry not fully specified) guide: GTTTAAGAGCTAAGCTGGAAACAGCATAGCAAGTTTAAATAAGGCTAGTCCGTTATCAACTTGAAAAAGTGACCCCGAGTCGGGGTT | 1.002 |
